Our source for the Kd values is the Immune Epitope Database (IEDB).

One assay has as its target HLA-A*26:01. Put plainly: IEDB peptide-MHC binding, purified MHC/competitive/fluorescence; filed as Kd, often an IC50 or EC50 that approximates it; ≥ and ≤ were set here for values at or beyond the usual limits of such assays.
Another assay deals with HLA-B*51:01. Described as above.
Another assay deals with HLA-B*15:17. The description is as above. The following applies: source organism: Coxiella burnetii.
Assay [1] has as its target HLA-B*39:01. The description is as above.
Assay [2] deals with HLA-B*18:01. The description is as above.
Assay [3] has as its target HLA-A*02:01. The description is as above.
In assay [4] the target is HLA-B*57:01. Described as above.
Assay [5] concerns the target HLA-A*69:01. The assay is described as above.
The target of assay [6] is HLA-B*46:01. The assay is described as above.
The target in another assay is HLA-B*27:03. Described as above.
The next assay deals with HLA-A*24:03. Put plainly: IEDB peptide-MHC binding, purified MHC/direct/fluorescence; filed as Kd, often an IC50 or EC50 that approximates it; ≥ and ≤ were set here for values at or beyond the usual limits of such assays. The settings on record: source organism: Coxiella burnetii.
The target of the next assay is HLA-A*02:12. Described as above.
The target in another assay is HLA-A*11:01. The description is as above.
The next assay addresses HLA-A*68:02. Described as above.
A further assay concerns the target HLA-A*02:16. The description is as above. The settings on record: source organism: Coxiella burnetii.
A further assay addresses HLA-A*02:03. The assay is described as above.
The target of a further assay is HLA-A*02:19. Described as above.
A further assay concerns the target HLA-A*01:01. Described as above.
Another assay has as its target HLA-A*29:02. Described as above.
The next assay concerns the target HLA-B*15:42. Put plainly: IEDB peptide-MHC binding, purified MHC/competitive/fluorescence; filed as Kd, often an IC50 or EC50 that approximates it; ≥ and ≤ were set here for values at or beyond the usual limits of such assays.
The target in the next assay is HLA-B*45:06. The description is as above.
For a further assay, the target named is HLA-B*83:01. The description is as above.
In assay [7] the target is HLA-A*03:01. Described as above.
The target in another assay is HLA-B*40:01. Put plainly: IEDB peptide-MHC binding, purified MHC/direct/fluorescence; filed as Kd, often an IC50 or EC50 that approximates it; ≥ and ≤ were set here for values at or beyond the usual limits of such assays.
Assay [8] deals with HLA-B*18:01. Described as above.
In assay [9] the target is HLA-B*39:01. The description is as above.
Another assay concerns the target HLA-B*58:01. Described as above. The settings on record: source organism: Mammarenavirus juninense.
Another assay deals with HLA-B*15:01. Described as above. The settings on record: source organism: Mammarenavirus juninense.
In assay [10] the target is HLA-A*03:01. The assay is described as above.
The target of the next assay is HLA-B*07:02. Described as above.
Another assay addresses HLA-A*31:01. The description is as above. The following applies: source organism: Mammarenavirus juninense.
The target in assay [11] is HLA-A*02:01. The assay is described as above. The settings on record: source organism: Mammarenavirus juninense.
The target of assay [12] is HLA-B*57:01. Described as above. The following applies: source organism: Mammarenavirus juninense.
The target in assay [13] is HLA-A*69:01. The description is as above.
The next assay addresses HLA-B*27:05. The description is as above.
Assay [14] has as its target HLA-B*46:01. The assay is described as above.
For a further assay, the target named is HLA-B*44:02. Described as above.
[15] abbreviates: source organism: Coxiella burnetii.
Where [16] appears, read: source organism: Yaba-like disease virus.
Setting [17] is: source organism: Cryptosporidium parvum Iowa II.
Setting [18] is: source organism: Mammarenavirus lassaense.
The mark [19] stands for this setting: source organism: Salmonella enterica subsp. enterica serovar Typhi.
Where [20] appears, read: source organism: Mycobacterium tuberculosis variant bovis BCG str. Pasteur 1173P2.
[21] abbreviates: source organism: Mammarenavirus juninense.
Setting [22] is: source organism: Human immunodeficiency virus 1.

The term Kd denotes a measure of binding affinity in units of concentration. Low values mean a tighter complex, high ones a looser complex. As to KFFMVHSLK, the Kd with HLA-A*26:01 (setting [15]), in the assay with HLA-B*51:01 (setting [15]), with HLA-B*15:17, in the assay with HLA-B*39:01 [1] (setting [15]), with HLA-B*18:01 [2] (setting [15]) and with HLA-A*02:01 [3] (setting [15]) was at least 20 µM each time. Moreover, the Kd in the assay with HLA-B*57:01 [4] (setting [15]), in the assay with HLA-A*69:01 [5] (setting [15]), with HLA-B*46:01 [6] (setting [15]), with HLA-B*27:03 (setting [15]), with HLA-A*24:03 and with HLA-A*02:12 (setting [15]) was at least 20 µM throughout. Moreover, the Kd was 603 nM with HLA-A*11:01 (setting [15]); at least 20 µM with HLA-A*68:02 (setting [15]); at least 20 µM with HLA-A*02:16; at least 20 µM with HLA-A*02:03 (setting [15]); at least 20 µM with HLA-A*02:19 (setting [15]).

For the sequence MTSGSSSGF, the figures for the Kd with HLA-A*01:01 (source organism: Mycobacterium tuberculosis) and in the assay with HLA-A*29:02 (source organism: Mycobacterium tuberculosis H37Rv) were at least 5 µM and 51 nM, respectively.

Turning to NTDNKFISY, the Kd in the assay with HLA-B*15:42 (setting [16]) was at least 5 µM; in the assay with HLA-B*45:06 (setting [16]) it was at least 5 µM; in the assay with HLA-B*83:01 (setting [16]) it was at least 5 µM; in the assay with HLA-A*01:01 (source organism: Camelpox virus M-96) it was at most 0.001 µM.

As to RLLHRTTRH, the equilibrium dissociation constant (Kd) in the assay with HLA-A*03:01 [7] (source organism: Burkholderia vietnamiensis G4) was 12 nM.

For the sequence GFPFFIMPK, the Kd in the assay with HLA-A*26:01 (setting [17]), with HLA-B*51:01 (setting [17]), in the assay with HLA-B*39:01 [1] (setting [17]), in the assay with HLA-B*18:01 [2] (setting [17]), with HLA-A*02:01 [3] (setting [17]) and with HLA-B*57:01 [4] (setting [17]) was at least 20 µM in each case. Besides, the Kd with HLA-A*69:01 [5] (setting [17]) was at least 20 µM; with HLA-B*46:01 [6] (setting [17]), at least 20 µM; with HLA-B*27:03 (setting [17]), at least 20 µM; in the assay with HLA-A*02:12 (setting [17]), at least 20 µM; with HLA-A*11:01 (setting [17]), 78 nM; with HLA-A*68:02 (setting [17]), at least 20 µM. Further, the Kd with HLA-A*02:03 (setting [17]) and in the assay with HLA-A*02:19 (setting [17]) was at least 20 µM in each case.

As to SERFINYAI, the Kd is at least 5 µM with HLA-B*15:42 (setting [18]); at least 5 µM with HLA-B*45:06 (setting [18]); at least 5 µM with HLA-B*83:01 (setting [18]); 52.5 nM in the assay with HLA-B*40:01 (setting [18]); 33 nM with HLA-B*18:01 [8] (setting [18]).

Take FTFKVNSVK: the Kd is 152 nM with HLA-A*03:01 [7] (setting [19]), at least 5 µM with HLA-B*15:42 (setting [19]), at least 5 µM in the assay with HLA-B*45:06 (setting [19]) and at least 5 µM in the assay with HLA-B*83:01 (setting [19]).

As for QETWTRLVL, the figures for the Kd with HLA-B*39:01 [9] (setting [20]) and with HLA-B*40:01 (setting [20]) were 108 nM and 38.9 nM, respectively.

With FMLSVHYRK, in the assay with HLA-A*03:01 [7] (source organism: Listeria monocytogenes HCC23), the dissociation constant (Kd) was 364 nM.

Turning to GKLDPTNTL, the Kd is at least 20 µM with HLA-B*58:01; at least 20 µM with HLA-B*15:01; 3000 nM in the assay with HLA-B*39:01 [9] (setting [21]); at least 20 µM in the assay with HLA-A*03:01 [10] (setting [21]); at least 20 µM with HLA-A*01:01 (setting [21]); at least 20 µM with HLA-B*07:02 (setting [21]). For the same sequence, the Kd in the assay with HLA-A*31:01 was at least 20 µM; with HLA-B*40:01 (setting [21]), at least 20000 nM; with HLA-B*18:01 [8] (setting [21]), at least 20000 nM; in the assay with HLA-A*29:02 (setting [21]), at least 20000 nM; with HLA-A*02:01 [11] it was at least 20 µM; with HLA-B*57:01 [12], at least 20 µM. The Kd in the assay with HLA-A*69:01 [13] (setting [21]), with HLA-B*27:05 (setting [21]), with HLA-B*46:01 [14] (setting [21]) and with HLA-B*44:02 (setting [21]) was at least 20 µM each time.

VIWAASGFY gave a Kd in the assay with HLA-A*03:01 [7] (source organism: Yersinia pestis Nepal516) of 95.6 nM.

As to RPMTYKAAL, the Kd with HLA-B*15:42 (setting [22]) was at least 5 µM; with HLA-B*45:06 (setting [22]), at least 5 µM; with HLA-B*83:01 (setting [22]), 0.0987 µM; with HLA-B*07:02 (setting [22]), 0.0396 µM; in the assay with HLA-A*11:01 (setting [22]), 17600 nM; with HLA-A*69:01 [13] (setting [22]), 11 µM.

In the assay with HLA-A*03:01 [7] (source organism: Vibrio atlanticus LGP32), HISWQGPGK yielded a Kd of 218 nM.

For the sequence KREEHYIVL, the Kd with HLA-B*39:01 [9] (setting [18]) was 100 nM; in the assay with HLA-A*03:01 [10] (setting [18]), at least 20 µM; with HLA-B*07:02 (setting [18]), at least 20 µM; with HLA-B*27:05 (setting [18]), at least 20 µM; with HLA-B*46:01 [14] (setting [18]), at least 20 µM; with HLA-B*44:02 (setting [18]) it was at least 20 µM.
